Source: paper PMC9896810, “Crk proteins activate the Rap1 guanine nucleotide exchange factor C3G by segregated adaptor-dependent and -independent mechanisms” (Cell Communication and Signaling : CCS, 2023)

Key:
[1] = target: T1, Src-phosphorylated C3G-AAPA (human, UniProt Q13905-1 4-1077, P283A | P284A | L286 | P287 | P289A | P453A | P454A | L456A | P457A | K459A | …, phosphotyrosines from phosphorylation in vitro with Src (sites not given)); test: ITC; single-PRM mutant of C3G in the cell titrated with CrkL or CrkL-SH3N, 25 °C, 300 mM NaCl, pH 7.5; SEDPHAT, 1:1 heteroassociation model; N is the competent fraction of C3G; conditions: both partners purified
T1 construct: human C3G isoform a, residues 4-1077; only P3 kept, P1, P2 and P4 mutated to Ala; also called pC3G-AAPA; source: E. coli BL21 (DE3), purified; phosphorylated in vitro with the recombinant kinase domain of Src, then SEC; not shown: His, N-terminal, cleaved; Halo, N-terminal, cleaved
T1 sequence (looked up): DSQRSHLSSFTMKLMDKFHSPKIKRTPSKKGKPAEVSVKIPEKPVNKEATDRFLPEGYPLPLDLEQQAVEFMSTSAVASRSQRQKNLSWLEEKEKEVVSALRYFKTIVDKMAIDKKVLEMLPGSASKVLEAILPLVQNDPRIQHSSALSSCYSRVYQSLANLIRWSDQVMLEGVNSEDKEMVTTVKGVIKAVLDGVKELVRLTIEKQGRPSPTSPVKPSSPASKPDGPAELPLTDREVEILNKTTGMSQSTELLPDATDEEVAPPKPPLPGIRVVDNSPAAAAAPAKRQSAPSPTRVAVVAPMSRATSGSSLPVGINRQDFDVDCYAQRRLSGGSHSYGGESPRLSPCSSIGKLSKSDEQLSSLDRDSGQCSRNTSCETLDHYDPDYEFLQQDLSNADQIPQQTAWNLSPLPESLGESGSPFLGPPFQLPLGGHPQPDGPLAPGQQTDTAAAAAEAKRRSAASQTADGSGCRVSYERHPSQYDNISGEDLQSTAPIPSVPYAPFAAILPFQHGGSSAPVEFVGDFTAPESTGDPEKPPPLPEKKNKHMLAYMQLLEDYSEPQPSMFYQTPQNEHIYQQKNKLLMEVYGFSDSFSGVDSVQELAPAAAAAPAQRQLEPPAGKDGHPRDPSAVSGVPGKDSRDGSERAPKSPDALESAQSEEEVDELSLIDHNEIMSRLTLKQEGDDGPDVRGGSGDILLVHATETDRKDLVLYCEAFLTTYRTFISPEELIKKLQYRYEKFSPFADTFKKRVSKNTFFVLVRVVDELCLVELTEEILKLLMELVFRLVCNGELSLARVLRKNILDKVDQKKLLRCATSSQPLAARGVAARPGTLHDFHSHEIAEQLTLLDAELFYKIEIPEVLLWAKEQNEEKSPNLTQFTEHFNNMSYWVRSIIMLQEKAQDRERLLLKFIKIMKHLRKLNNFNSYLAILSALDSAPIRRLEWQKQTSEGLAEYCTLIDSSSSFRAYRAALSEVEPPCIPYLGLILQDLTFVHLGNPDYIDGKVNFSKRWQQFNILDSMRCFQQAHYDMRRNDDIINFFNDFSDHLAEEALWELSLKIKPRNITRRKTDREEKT

C3G-AAAP-Y554H = target: T2, C3G-AAAP-Y554H (human, UniProt Q13905-1 4-1077, P283A | P284A | L286 | P287 | P289A | P453A | P454A | L456A | P457A | K459A | …); test: as above; conditions: both partners purified
T2 construct: human C3G isoform a, residues 4-1077; source: E. coli BL21 (DE3), purified (IMAC, TEV digestion, reversed IMAC, SEC); not shown: His, N-terminal, cleaved; Halo, N-terminal, cleaved
T2 sequence (looked up): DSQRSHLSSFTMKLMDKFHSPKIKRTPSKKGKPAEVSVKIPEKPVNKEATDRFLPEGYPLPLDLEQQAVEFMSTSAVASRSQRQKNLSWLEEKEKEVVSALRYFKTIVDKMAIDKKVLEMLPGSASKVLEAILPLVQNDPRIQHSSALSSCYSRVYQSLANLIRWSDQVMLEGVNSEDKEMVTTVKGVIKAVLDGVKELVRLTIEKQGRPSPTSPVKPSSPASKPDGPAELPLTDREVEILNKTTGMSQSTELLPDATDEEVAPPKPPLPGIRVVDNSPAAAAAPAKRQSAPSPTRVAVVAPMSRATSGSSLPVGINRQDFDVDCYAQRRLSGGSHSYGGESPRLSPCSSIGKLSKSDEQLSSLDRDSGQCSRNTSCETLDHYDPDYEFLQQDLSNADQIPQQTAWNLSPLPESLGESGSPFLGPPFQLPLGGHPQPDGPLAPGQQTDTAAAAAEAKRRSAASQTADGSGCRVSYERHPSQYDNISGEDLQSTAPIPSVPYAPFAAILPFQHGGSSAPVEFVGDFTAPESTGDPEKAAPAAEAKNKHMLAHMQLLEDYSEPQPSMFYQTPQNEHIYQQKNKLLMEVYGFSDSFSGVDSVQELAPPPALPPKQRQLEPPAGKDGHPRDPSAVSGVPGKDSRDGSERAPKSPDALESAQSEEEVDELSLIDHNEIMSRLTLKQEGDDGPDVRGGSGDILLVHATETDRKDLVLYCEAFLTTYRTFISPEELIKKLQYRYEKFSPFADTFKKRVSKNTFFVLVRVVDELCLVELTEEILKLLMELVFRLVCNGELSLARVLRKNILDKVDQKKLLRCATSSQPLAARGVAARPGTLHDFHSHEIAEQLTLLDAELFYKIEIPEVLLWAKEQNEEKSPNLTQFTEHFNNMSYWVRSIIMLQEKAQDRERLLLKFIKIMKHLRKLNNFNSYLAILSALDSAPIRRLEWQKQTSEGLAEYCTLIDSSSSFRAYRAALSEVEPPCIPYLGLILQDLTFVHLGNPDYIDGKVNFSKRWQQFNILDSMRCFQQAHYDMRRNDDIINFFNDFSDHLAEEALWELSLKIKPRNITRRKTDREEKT

Kd [1]: 2100 nM
stoichiometry N [1]: 0.08
Kd (C3G-AAAP-Y554H): 2400 nM
stoichiometry N (C3G-AAAP-Y554H): 0.57
B1: CrkL-SH3N (domain or fragment, human, UniProt P46109 125-182, looked up)
chain: LEYVRTLYDFPGNDAEDLPFKKGEILVIIEKPEEQWWSARNKDGRVGMIPVPYVEKLV
notes: human CrkL, SH3N domain, residues 125-182, in pETEV15b; source: E. coli BL21 (DE3), purified (IMAC, TEV digestion, SEC); not shown: His, N-terminal, cleaved
